What all share (experiment): cell-based or functional assay
The target of one assay is T1, Caspase-6, P55212.
T1 chain: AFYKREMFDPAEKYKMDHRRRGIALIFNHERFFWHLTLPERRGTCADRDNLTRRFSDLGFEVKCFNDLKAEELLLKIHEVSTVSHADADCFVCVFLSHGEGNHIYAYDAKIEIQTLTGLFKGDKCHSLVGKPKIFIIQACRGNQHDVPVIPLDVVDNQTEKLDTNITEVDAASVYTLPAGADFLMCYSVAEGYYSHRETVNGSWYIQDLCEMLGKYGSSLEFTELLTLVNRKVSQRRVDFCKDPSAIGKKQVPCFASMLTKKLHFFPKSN

The target of another assay is T2, Caspase-3, P42574.
T2 chain: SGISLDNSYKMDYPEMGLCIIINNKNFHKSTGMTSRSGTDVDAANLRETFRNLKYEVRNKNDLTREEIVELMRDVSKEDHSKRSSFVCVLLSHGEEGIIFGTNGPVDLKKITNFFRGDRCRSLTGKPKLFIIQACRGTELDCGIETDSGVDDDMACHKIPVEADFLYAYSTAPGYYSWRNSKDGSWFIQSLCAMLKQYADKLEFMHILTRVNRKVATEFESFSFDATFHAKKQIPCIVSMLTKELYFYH

A further assay concerns the target T3, Caspase-2, P42575.
T3 chain: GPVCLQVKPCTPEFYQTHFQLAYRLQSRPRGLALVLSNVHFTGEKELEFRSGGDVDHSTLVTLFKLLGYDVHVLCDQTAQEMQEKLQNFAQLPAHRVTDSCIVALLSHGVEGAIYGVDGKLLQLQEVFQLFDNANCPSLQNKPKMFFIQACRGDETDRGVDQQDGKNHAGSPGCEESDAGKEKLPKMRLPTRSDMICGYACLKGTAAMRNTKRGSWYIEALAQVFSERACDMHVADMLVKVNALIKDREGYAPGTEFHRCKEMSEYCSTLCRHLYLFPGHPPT

A further assay addresses T4, Caspase-10, Q92851.
T4 chain: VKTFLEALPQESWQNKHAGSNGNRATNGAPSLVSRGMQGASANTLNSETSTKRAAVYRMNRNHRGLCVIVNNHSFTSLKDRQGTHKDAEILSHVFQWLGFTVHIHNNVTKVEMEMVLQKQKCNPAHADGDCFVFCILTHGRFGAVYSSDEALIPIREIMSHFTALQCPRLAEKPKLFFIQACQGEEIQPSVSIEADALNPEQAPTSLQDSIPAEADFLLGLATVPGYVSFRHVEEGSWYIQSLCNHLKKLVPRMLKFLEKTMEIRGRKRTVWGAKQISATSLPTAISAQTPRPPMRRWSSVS

The target in the next assay is T5, Caspase-8, Q14790.
T5 chain: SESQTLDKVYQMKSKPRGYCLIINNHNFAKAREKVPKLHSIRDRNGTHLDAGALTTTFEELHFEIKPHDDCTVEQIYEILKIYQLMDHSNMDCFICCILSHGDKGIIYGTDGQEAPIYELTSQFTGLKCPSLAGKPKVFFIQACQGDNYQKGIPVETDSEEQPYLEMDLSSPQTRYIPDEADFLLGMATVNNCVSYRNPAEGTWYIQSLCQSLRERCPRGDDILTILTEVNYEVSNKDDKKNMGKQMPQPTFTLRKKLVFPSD

The target in a further assay is T6, Caspase-7, P55210.
T6 chain: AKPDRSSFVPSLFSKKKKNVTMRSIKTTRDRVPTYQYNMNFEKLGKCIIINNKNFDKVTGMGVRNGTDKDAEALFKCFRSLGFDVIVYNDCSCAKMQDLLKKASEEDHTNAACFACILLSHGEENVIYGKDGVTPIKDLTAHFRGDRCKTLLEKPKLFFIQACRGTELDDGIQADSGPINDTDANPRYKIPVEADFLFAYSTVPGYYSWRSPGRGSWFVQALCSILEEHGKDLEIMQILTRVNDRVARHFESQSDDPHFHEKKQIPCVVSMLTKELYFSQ

The target in the next assay is T7, Caspase-9, P55211.
T7 chain: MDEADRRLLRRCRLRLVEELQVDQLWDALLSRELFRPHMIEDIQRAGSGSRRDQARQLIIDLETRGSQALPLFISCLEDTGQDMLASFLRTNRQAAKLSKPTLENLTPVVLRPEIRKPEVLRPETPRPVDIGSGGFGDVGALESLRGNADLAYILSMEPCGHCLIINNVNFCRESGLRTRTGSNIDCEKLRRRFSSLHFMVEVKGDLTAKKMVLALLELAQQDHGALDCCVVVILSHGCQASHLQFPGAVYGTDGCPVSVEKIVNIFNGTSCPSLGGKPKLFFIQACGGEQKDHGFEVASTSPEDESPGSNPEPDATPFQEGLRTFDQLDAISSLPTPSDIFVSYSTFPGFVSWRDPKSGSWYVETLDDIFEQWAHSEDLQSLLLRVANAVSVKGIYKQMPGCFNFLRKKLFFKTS

Assay [1] concerns the target T8, calpain I from porcine erythrocytes (porcine), P35750.
T8 chain: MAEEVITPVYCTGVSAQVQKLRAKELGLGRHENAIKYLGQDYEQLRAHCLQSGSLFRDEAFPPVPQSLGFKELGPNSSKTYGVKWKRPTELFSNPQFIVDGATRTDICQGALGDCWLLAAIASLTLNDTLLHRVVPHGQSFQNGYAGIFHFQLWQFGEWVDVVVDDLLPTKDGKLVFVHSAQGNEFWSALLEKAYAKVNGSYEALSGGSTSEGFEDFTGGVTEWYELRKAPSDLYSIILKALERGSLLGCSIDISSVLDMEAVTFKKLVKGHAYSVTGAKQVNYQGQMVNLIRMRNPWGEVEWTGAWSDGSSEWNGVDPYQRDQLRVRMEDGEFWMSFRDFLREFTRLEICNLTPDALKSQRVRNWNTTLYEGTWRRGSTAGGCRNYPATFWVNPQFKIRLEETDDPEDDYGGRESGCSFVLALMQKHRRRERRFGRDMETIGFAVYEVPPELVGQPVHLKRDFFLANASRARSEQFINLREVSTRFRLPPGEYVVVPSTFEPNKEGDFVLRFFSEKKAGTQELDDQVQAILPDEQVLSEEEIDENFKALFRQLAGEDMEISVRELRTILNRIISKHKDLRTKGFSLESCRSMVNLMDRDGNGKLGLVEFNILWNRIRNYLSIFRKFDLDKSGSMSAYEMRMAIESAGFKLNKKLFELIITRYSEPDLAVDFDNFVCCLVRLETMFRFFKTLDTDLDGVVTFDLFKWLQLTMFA

A further assay concerns the target Cathepsin B.

Regarding DEVD (modifications not checked) [Cbz-Asp-Glu-Val-AAsp-CH═CH-COOEt (trans)], the k2 with Caspase-6, P55212 came to 35600 M⁻¹ s⁻¹; in the assay with Caspase-3, P42574 it was 2.13e+06 M⁻¹ s⁻¹; in the assay with Caspase-2, P42575 it was 2640 M⁻¹ s⁻¹; with Caspase-10, Q92851, 49900 M⁻¹ s⁻¹; in the assay with Caspase-8, Q14790, 273000 M⁻¹ s⁻¹; with Caspase-7, P55210 it was 239000 M⁻¹ s⁻¹.

As for LETD (modifications not checked) [Cbz-Leu-Glu-Thr-AAsp-CH═CH-COOEt], the k2 is 37 M⁻¹ s⁻¹ with Caspase-9, P55211; 18700 M⁻¹ s⁻¹ with Caspase-6, P55212; 5560 M⁻¹ s⁻¹ with Caspase-3, P42574; 237000 M⁻¹ s⁻¹ in the assay with Caspase-8, Q14790; less than 10 M⁻¹ s⁻¹ in assay [1]; less than 10 M⁻¹ s⁻¹ in the assay with Cathepsin B.

The values are drawn from patent US20050256058A1.
